Reference: the supplement of paper PMC5998384

Tests used:
HeLa Kyoto [1] = assay: solubility change mitosis vs G1/S (difference of NP-40 vs SDS log2 ratios) (log2 ratio difference); higher = more soluble in mitosis
HeLa Kyoto [2] = assay: thermal stability score vs G1/S (z-score of summed log2 fold changes over temperatures); higher = more thermally stable than in G1/S
HeLa Kyoto [3] = assay: solubility in G1/S (NP-40 vs SDS abundance) (log2 ratio); higher = more soluble; conditions: cell cycle stage: G1/S
HeLa Kyoto [4] = assay: melting temperature (median over replicates), in situ; higher = more thermally stable
[5] = cell cycle stage: early G1 (4.5 h after nocodazole release)
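For melting temperature (median over replicates), in situ in this document: HeLa Kyoto cells synchronized by double thymidine or nocodazole block, proteins quantified by TMT10plex mass spectrometry, three independent biological replicates.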
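For solubility change mitosis vs G1/S (difference of NP-40 vs SDS log2 ratios) in this document: synchronized HeLa Kyoto cells (double thymidine block for G1/S, nocodazole release for mitosis), protein amounts in NP-40 versus SDS lysates quantified by mass spectrometry, three biological replicates.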
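For solubility in G1/S (NP-40 vs SDS abundance) in this document: HeLa Kyoto cells arrested at G1/S by double thymidine block, proteins quantified by TMT10plex mass spectrometry in mild NP-40 versus SDS extracts, three biological replicates.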
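For thermal stability score vs G1/S (z-score of summed log2 fold changes over temperatures) in this document: synchronized HeLa Kyoto cells, proteins quantified by TMT10plex mass spectrometry, three biological replicates, mitosis taken 0.5 h after nocodazole release, G1/S directly after double thymidine block.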

Sequence	solubility change mitosis (log2) (HeLa Kyoto [1])	thermal stability score (HeLa Kyoto [2]; [5])	thermal stability score (HeLa Kyoto [2]; cell cycle stage: mitosis)	solubility in G1/S (log2) (HeLa Kyoto [3])	melting temperature (HeLa Kyoto [4]; cell cycle stage: G1/S) [°C]	melting temperature (HeLa Kyoto [4]; cell cycle stage: mitosis) [°C]
MAVYRAALGASLAAARLLPLGRCSPSPAPRSTLSGAAMEPAPRWLAGLRFDNRALRALPVEAPPPGPEGAPSAPRPVPGACFTRVQPTPLRQPRLVALSEPALALLGLGAPPAREAEAEAALFFSGNALLPGAEPAAHCYCGHQFGQFAGQLGDGAAMYLGEVCTATGERWELQLKGAGPTPFSRQADGRKVLRSSIREFLCSEAMFHLGVPTTRAGACVTSESTVVRDVFYDGNPKYEQCTVVLRVASTFIRFGSFEIFKSADEHTGRAGPSVGRNDIRVQLLDYVISSFYPEIQAAHASDSVQRNAAFFREVTRRTARMVAEWQCVGFCHGVLNTDNMSILGLTIDYGPFGFLDRYDPDHVCNASDNTGRYAYSKQPEVCRWNLRKLAEALQPELPLELGEAILAEEFDAEFQRHYLQKMRRKLGLVQVELEEDGALVSKLLETMHLTGADFTNTFYLLSSFPVELESPGLAEFLARLMEQCASLEELRLAFRPQMDPRQLSMMLMLAQSNPQLFALMGTRAGIARELERVEQQSRLEQLSAAELQSRNQGHWADWLQAYRARLDKDLEGAGDAAAWQAEHVRVMHANNPKYVLRNYIAQNAIEAAERGDFSEVRRVLKLLETPYHCEAGAATDAEATEADGADGRQRSYSSKPPLWAAELCVTUSS [SELO]	-0.115	3	3.57	-0.0646	47.8	49.1
MSLYPSLEDLKVDKVIQAQTAFSANPANPAILSEASAPIPHDGNLYPRLYPELSQYMGLSLNEEEIRANVAVVSGAPLQGQLVARPSSINYMVAPVTGNDVGIRRAEIKQGIREVILCKDQDGKIGLRLKSIDNGIFVQLVQANSPASLVGLRFGDQVLQINGENCAGWSSDKAHKVLKQAFGEKITMTIRDRPFERTITMHKDSTGHVGFIFKNGKITSIVKDSSAARNGLLTEHNICEINGQNVIGLKDSQIADILSTSGTVVTITIMPAFIFEHIIKRMAPSIMKSLMDHTIPEV [SDCBP]	-0.0317	-1.02	-6.31	0.00564	52.6	51.4
MDDQQALNSIMQDLAVLHKASRPALSLQETRKAKSSSPKKQNDVRVKFEHRGEKRILQFPRPVKLEDLRSKAKIAFGQSMDLHYTNNELVIPLTTQDDLDKAVELLDRSIHMKSLKILLVINGSTQATNLEPLPSLEDLDNTVFGAERKKRLSIIGPTSRDRSSPPPGYIPDELHQVARNGSFTSINSEGEFIPESMDQMLDPLSLSSPENSGSGSCPSLDSPLDGESYPKSRMPRAQSYPDNHQEFSDYDNPIFEKFGKGGTYPRRYHVSYHHQEYNDGRKTFPRARRTQGTSLRSPVSFSPTDHSLSTSSGSSIFTPEYDDSRIRRRGSDIDNPTLTVMDISPPSRSPRAPTNWRLGKLLGQGAFGRVYLCYDVDTGRELAVKQVQFDPDSPETSKEVNALECEIQLLKNLLHERIVQYYGCLRDPQEKTLSIFMEYMPGGSIKDQLKAYGALTENVTRKYTRQILEGVHYLHSNMIVHRDIKGANILRDSTGNVKLGDFGASKRLQTICLSGTGMKSVTGTPYWMSPEVISGEGYGRKADIWSVACTVVEMLTEKPPWAEFEAMAAIFKIATQPTNPKLPPHVSDYTRDFLKRIFVEAKLRPSADELLRHMFVHYH [MAP3K2]	-0.043	0.798	1.24	0.0839	51.3	51.4
MANLLKTVVTGCSCPLLSNLGSCKGLRVKKDFLRTFYTHQELWCKAPVKPGIPYKQLTVGVPKEIFQNEKRVALSPAGVQNLVKQGFNVVVESGAGEASKFSDDHYRVAGAQIQGAKEVLASDLVVKVRAPMVNPTLGVHEADLLKTSGTLISFIYPAQNPELLNKLSQRKTTVLAMDQVPRVTIAQGYDALSSMANIAGYKAVVLAANHFGRFFTGQITAAGKVPPAKILIVGGGVAGLASAGAAKSMGAIVRGFDTRAAALEQFKSLGAEPLEVDLKESGEGQGGYAKEMSKEFIEAEMKLFAQQCKEVDILISTALIPGKKAPVLFNKEMIESMKEGSVVVDLAAEAGGNFETTKPGELYIHKGITHIGYTDLPSRMATQASTLYSNNITKLLKAISPDKDNFYFDVKDDFDFGTMGHVIRGTVVMKDGKVIFPAPTPKNIPQGAPVKQKTVAELEAEKAATITPFRKTMSTASAYTAGLTGILGLGIAAPNLAFSQMVTTFGLAGIVGYHTVWGVTPALHSPLMSVTNAISGLTAVGGLALMGGHLYPSTTSQGLAALAAFISSVNIAGGFLVTQRMLDMFKRPTDPPEYNYLYLLPAGTFVGGYLAALYSGYNIEQIMYLGSGLCCVGALAGLSTQGTARLGNALGMIGVAGGLAATLGVLKPGPELLAQMSGAMALGGTIGLTIAKRIQISDLPQLVAAFHSLVGLAAVLTCIAEYIIEYPHFATDAAANLTKIVAYLGTYIGGVTFSGSLIAYGKLQGLLKSAPLLLPGRHLLNAGLLAASVGGIIPFMVDPSFTTGITCLGSVSALSAVMGVTLTAAIGGADMPVVITVLNSYSGWALCAEGFLLNNNLLTIVGALIGSSGAILSYIMCVAMNRSLANVILGGYGTTSTAGGKPMEISGTHTEINLDNAIDMIREANSIIITPGYGLCAAKAQYPIADLVKMLTEQGKKVRFGIHPVAGRMPGQLNVLLAEAGVPYDIVLEMDEINHDFPDTDLVLVIGANDTVNSAAQEDPNSIIAGMPVLEVWKSKQVIVMKRSLGVGYAAVDNPIFYKPNTAMLLGDAKKTCDALQAKVRESYQK [NNT]	-0.0884	-1.09	-1.47	0.11	53.4	53.4
MAVTGWLESLRTAQKTALLQDGRRKVHYLFPDGKEMAEEYDEKTSELLVRKWRVKSALGAMGQWQLEVGDPAPLGAGNLGPELIKESNANPIFMRKDTKMSFQWRIRNLPYPKDVYSVSVDQKERCIIVRTTNKKYYKKFSIPDLDRHQLPLDDALLSFAHANCTLIISYQKPKEVVVAESELQKELKKVKTAHSNDGDCKTQ [DPCD]	-0.0049	0.4	0.716	0.223	49.9	49
MNAEPERKFGVVVVGVGRAGSVRMRDLRNPHPSSAFLNLIGFVSRRELGSIDGVQQISLEDALSSQEVEVAYICSESSSHEDYIRQFLNAGKHVLVEYPMTLSLAAAQELWELAEQKGKVLHEEHVELLMEEFAFLKKEVVGKDLLKGSLLFTAGPLEEERFGFPAFSGISRLTWLVSLFGELSLVSATLEERKEDQYMKMTVCLETEKKSPLSWIEEKGPGLKRNRYLSFHFKSGSLENVPNVGVNKNIFLKDQNIFVQKLLGQFSEKELAAEKKRILHCLGLAEEIQKYCCSRK [BLVRA]	-0.0957	-0.499	-0.397	0.108	54.9	55
MAGGAREVLTLQLGHFAGFVGAHWWNQQDAALGRATDSKEPPGELCPDVLYRTGRTLHGQETYTPRLILMDLKGSLSSLKEEGGLYRDKQLDAAIAWQGKLTTHKEELYPKNPYLQDFLSAEGVLSSDGVWRVKSIPNGKGSSPLPTATTPKPLIPTEASIRVWSDFLRVHLHPRSICMIQKYNHDGEAGRLEAFGQGESVLKEPKYQEELEDRLHFYVEECDYLQGFQILCDLHDGFSGVGAKAAELLQDEYSGRGIITWGLLPGPYHRGEAQRNIYRLLNTAFGLVHLTAHSSLVCPLSLGGSLGLRPEPPVSFPYLHYDATLPFHCSAILATALDTVTVPYRLCSSPVSMVHLADMLSFCGKKVVTAGAIIPFPLAPGQSLPDSLMQFGGATPWTPLSACGEPSGTRCFAQSVVLRGIDRACHTSQLTPGTPPPSALHACTTGEEILAQYLQQQQPGVMSSSHLLLTPCRVAPPYPHLFSSCSPPGMVLDGSPKGAAVESIPVFGALCSSSSLHQTLEALARDLTKLDLRRWASFMDAGVEHDDVAELLQELQSLAQCYQGGDSLVD [MSTO1]	-0.0764	0.792	0.318	0.162	51.2	51.1
MLGGSLGSRLLRGVGGSHGRFGARGVREGGAAMAAGESMAQRMVWVDLEMTGLDIEKDQIIEMACLITDSDLNILAEGPNLIIKQPDELLDSMSDWCKEHHGKSGLTKAVKESTITLQQAEYEFLSFVRQQTPPGLCPLAGNSVHEDKKFLDKYMPQFMKHLHYRIIDVSTVKELCRRWYPEEYEFAPKKAASHRALDDISESIKELQFYRNNIFKKKIDEKKRKIIENGENEKTVS [REXO2]	0.144	-2.25	-3.59	0.239	56.8	56.5
MPVVRKIFRRRRGDSESEEDEQDSEEVRLKLEETREVQNLRKRPNGVSAVALLVGEKVQEETTLVDDPFQMKTGGMVDMKKLKERGKDKISEEEDLHLGTSFSAETNRRDEDADMMKYIETELKKRKGIVEHEEQKVKPKNAEDCLYELPENIRVSSAKKTEEMLSNQMLSGIPEVDLGIDAKIKNIISTEDAKARLLAEQQNKKKDSETSFVPTNMAVNYVQHNRFYHEELNAPIRRNKEEPKARPLRVGDTEKPEPERSPPNRKRPANEKATDDYHYEKFKKMNRRY [C9ORF78]	0.0516	-2.13	-4.34	0.501	57.3	55.1
MAPAMQPAEIQFAQRLASSEKGIRDRAVKKLRQYISVKTQRETGGFSQEELLKIWKGLFYCMWVQDEPLLQEELANTIAQLVHAVNNSAAQHLFIQTFWQTMNREWKGIDRLRLDKYYMLIRLVLRQSFEVLKRNGWEESRIKVFLDVLMKEVLCPESQSPNGVRFHFIDIYLDELSKVGGKELLADQNLKFIDPFCKIAAKTKDHTLVQTIARGVFEAIVDQSPFVPEETMEEQKTKVGDGDLSAEEIPENEVSLRRAVSKKKTALGKNHSRKDGLSDERGRDDCGTFEDTGPLLQFDYKAVADRLLEMTSRKNTPHFNRKRLSKLIKKFQDLSEGSSISQLSFAEDISADEDDQILSQGKHKKKGNKLLEKTNLEKEKGSRVFCVEEEDSESSLQKRRRKKKKKHHLQPENPGPGGAAPSLEQNRGREPEASGLKALKARVAEPGAEATSSTGEESGSEHPPAVPMHNKRKRPRKKSPRAHREMLESAVLPPEDMSQSGPSGSHPQGPRGSPTGGAQLLKRKRKLGVVPVNGSGLSTPAWPPLQQEGPPTGPAEGANSHTTLPQRRRLQKKKAGPGSLELCGLPSQKTASLKKRKKMRVMSNLVEHNGVLESEAGQPQALGSSGTCSSLKKQKLRAESDFVKFDTPFLPKPLFFRRAKSSTATHPPGPAVQLNKTPSSSKKVTFGLNRNMTAEFKKTDKSILVSPTGPSRVAFDPEQKPLHGVLKTPTSSPASSPLVAKKPLTTTPRRRPRAMDFF [RRP1B]	1.63	1.95	1.97	-2.01	47.9	49.5
MARMNRPAPVEVTYKNMRFLITHNPTNATLNKFIEELKKYGVTTIVRVCEATYDTTLVEKEGIHVLDWPFDDGAPPSNQIVDDWLSLVKIKFREEPGCCIAVHCVAGLGRAPVLVALALIEGGMKYEDAVQFIRQKRRGAFNSKQLLYLEKYRPKMRLRFKDSNGHRNNCCIQ [PTP4A1]	-0.0406	0.98	-0.349	-0.131	52.9	53.8
MSFLLPKLTSKKEVDQAIKSTAEKVLVLRFGRDEDPVCLQLDDILSKTSSDLSKMAAIYLVDVDQTAVYTQYFDISYIPSTVFFFNGQHMKVDYGSPDHTKFVGSFKTKQDFIDLIEVIYRGAMRGKLIVQSPIDPKNIPKYDLLYQDI [TXNL4B]	0.00266	0.0365	1.15	0.0975	51	51.8
